Measured values reported in article PMC4791852 (mBio, 2016).

Molecular target: T1, Ebola virus GPCL trimer (thermolysin-cleaved, purified GP ectodomain) (Ebola virus (Zaire ebolavirus); GP1 …)
T1 chain 1: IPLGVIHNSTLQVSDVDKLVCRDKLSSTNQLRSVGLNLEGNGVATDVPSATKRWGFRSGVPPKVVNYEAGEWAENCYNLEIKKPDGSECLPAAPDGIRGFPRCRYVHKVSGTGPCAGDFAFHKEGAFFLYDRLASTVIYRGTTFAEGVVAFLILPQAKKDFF
T1 chain 2: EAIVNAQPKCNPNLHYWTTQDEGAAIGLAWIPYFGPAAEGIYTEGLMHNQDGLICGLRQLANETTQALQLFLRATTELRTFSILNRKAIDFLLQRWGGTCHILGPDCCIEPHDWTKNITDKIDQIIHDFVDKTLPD
Experiment: crystal structure

B1: KZ52 Fab (Fab, V domains shown)
VH: EVQLLESGGGLVKPGGSLRLSCAASGFTLINYRMNWVRQAPGKGLEWVSSISSSSSYIHYADSVKGRFTISRDNAENSLYLQMNSLRAEDTAVYYCVREGPRATGYSMADVFDIWGQGTMVTVSS
VL: not shown
Does B1 bind?
Result: binds
